B1: TPR 5TU (parent)
chain: GGAUCUUCUCGAUCUAACAAAAAAGACAAAUCUGCCACAAAGCUUGAGAGCAUCUUCGGAUGCAGAGGCGGCAGCCUUCGGUGGCGCGAUAGCGCCAACGUUCUCAACUAUGACACGCAAAACGCGUGCUCCGUUGAAUGGAGUUUAUCAUG

This sample holds only a part of the variants without activity. Some results are limits rather than exact numbers.

The variants in the series derive from B1. Briefly: polymerase ribozyme fitness, log enrichment relative to wild type (log ratio); higher = more active; in vitro selection for triplet polymerase activity. In outline:
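Each subunit of a heterodimeric triplet polymerase ribozyme was mutagenized into a library by PCR, transcribed, and subjected to one round of in vitro selection, run in triplicate. Libraries were annealed with a biotinylated primer, the partner subunit and triplets, incubated frozen at −7 °C, and extended constructs were gel-excised, captured on streptavidin beads and recovered by RT-PCR. Input and output libraries were sequenced on Illumina, keeping genotypes with ≥10 input reads and ≥1 read per output. Fitness is log base 2 of genotype enrichment divided by wild-type enrichment, from inverse-variance-weighted replicate averages.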
On to GGAUCUUCUCGAUCUAACAAAAAAGACAAAUCUGCCACAAAGCUUGAGAGCAUCUUCGGAUGCAGAGGCGGCAGCCUUCGGUGGCGCGAUAGCGCGAACGUUAUCAACUAUGACACGCAAAACGCGUGCUCCGUUGAAUGGAGUUUAUCAUG [C96G C103A], for which the “polymerase ribozyme fitness (log ratio)” value is -2.09.

In the case of GGAUCUUCUCGAUCUAACAAAAAAGACAAAUCUGCCACAAAGCUUGAGAGCAUCUUCGGAUGCAGAGGCGGCAGCCUUCGGUGGCGCGAUAGCGCAAACGUUAUCAACUAUGACACGCAAAACGCGUGCUCCGUAGAAUGGAGUAUAUCAUG [C96A C103A U135A U145A], the “polymerase ribozyme fitness (log ratio)” value is -1.96.

Consider GGAUCUUCUCGAUCUAACAAAAAAGACAAAUCUGCCACAAAGCUUGAGAGCAUCUUCGGAUGCAGAGGCGGCAGCCUUCGGUGGCGCGAUAGCGCAAACGUACUCAACUAUGACACGCAAAACGCGUGCUCCGUUGAAUGGACUUUAUCAUG [C96A U102A G143C], for which the “polymerase ribozyme fitness (log ratio)” value was -4.16.

Consider GGAUCUUCUCGAUCUAACAAAAAAGACAAAUCUGCCACAAAGCUUGAGAGCAUCUUCGGAUGCAGAGGCGGCAGCCUUCGGUGGCGCGAUAGCGCGAACGUUCUUAACUAUGCCACGCAAUACGCGUGCUCCGUUGAAUGGAGUUUAUCAUG [C96G C105U A113C A121U], for which the “polymerase ribozyme fitness (log ratio)” value was -2.76.

As for GGAUCUUCUCGAUCUAACAAAAAAGACAAAUCUGCCACAAAGCUUGAGAGCAUCUUCGGAUGCAGAGGCGGCAGCCUUCGGUGGCGCGAUAGCGCGAACGUUCUCAACUAUGACACGCAAUACGCGUGCUCCGUUGAAUGGAGUUUAUCAUG [C96G A121U], the “polymerase ribozyme fitness (log ratio)” value is -0.582.

With GGAUCUUCUCGAUCUAACAAAAAAGACAAAUCUGCCACAAAGCUUGAGAGCAUCUUCGGAUGCAGAGGCGGCAGCCUUCGGUGGCGCGAUAGCGCAAACGUUCUCAACUAUGACACGCAAAACGCAUGCUCCGUUGAAUGGAGUUUAUCAUG [C96A G126A], the “polymerase ribozyme fitness (log ratio)” value was -1.95.

On to GGAUCUUCUCGAUCUAACAAAAAAGACAAAUCUGCCACAAAGCUUGAGAGCAUCUUCGGAUGCAGAGGCGGCAGCCUUCGGUGGCGCGAUAGCGCGAACGUUCUCACAUAUGACACGCAUAACGCGUGCUCCGUUUAAUGGAGUUUAUCAUG [C96G A107C C108A A120U G136U], for which the “polymerase ribozyme fitness (log ratio)” value was -3.81.

Regarding GGAUCUUCUCGAUCUAACAAAAAAGACAAAUCUGCCACAAAGCUUGAGAGCAUCUUCGGAUGCAGAGGCGGCAGCCUUCGGUGGCGCGAUAGCGCAAACGUUCUCAACUAUGACACGCAGAACGCGUGCUCCGUUGAAUGGAGUUUAUCAUG [C96A A120G], the “polymerase ribozyme fitness (log ratio)” value is 0.0421.

Regarding GGAUCUUCUCGAUCUAACAAAAAAGACAAAUCUGCCACAAAGCUUGAGAGCAUCUUCGGAUGCAGAGGCGGCAGCCUUCGGUGGCGCGAUAGCGCAAACGUUCUCAACUAUGACACGAAAAACGCGUGCUCCGUUGAAUGGAGUUUAUCAUG [C96A C118A], the “polymerase ribozyme fitness (log ratio)” value is -0.912.

On to GGAUCUUCUCGAUCUAACAAAAAAGACAAAUCUGCCACAAAGCUUGAGAGCAUCUUCGGAUGCAGAGGCGGCAGCCUUCGGUGGCGCGAUAGCGCAAACGUUCGCAACUAUGACACGCAAAACGCGUGCUCCGUUGAAUGGAGUUUAUCAUG [C96A U104G], for which the “polymerase ribozyme fitness (log ratio)” value was -0.932.

For the variant GGAUCUUCUCGAUCUAACAAAAAAGACAAAUCUGCCACAAAGCUUGAGAGCAUCUUCGGAUGCAGAGGCGGCAGCCUUCGGUGGCGCGAUAGCGCAAACGUUCUCAACUAUGACACGCAAAACGCGUGCUCCGUUGAUUUGAGUUUAUCAUG [C96A A138U G140U], the “polymerase ribozyme fitness (log ratio)” value is at most -4.2.

Regarding GGAUCUUCUCGAUCUAACAAAAAAGACAAAUCUGCCACAAAGCUUGAGAGCAUCUUCGGAUGCAGAGGCGGCAGCCUUCGGUGGCGCGAUAGCGCGAACGUUCUCAACUAUGACACGCACAACGCGUGCUCCGUUGAAUGGAGUUCAUCAUG [C96G A120C U146C], the “polymerase ribozyme fitness (log ratio)” value is -0.778.

GGAUCUUCUCGAUCUAACAAAAAAGACAAAUCUGCCACAAAGCUUGAGAGCAUCUUCGGAUGCAGAGGCGGCAGCCUUCGGUGGCGCGAUAGCGCGAACGUUCUCAACUAUGACACGCAAAACGCGUGCUCCGUUGAAUGUAGUUUAUCAUG [C96G G141U]: the “polymerase ribozyme fitness (log ratio)” value was found to be 0.463.

In the case of GGAUCUUCUCGAUCUAACAAAAAAGACAAAUCUGCCACAAAGCUUGAGAGCAUCUUCGGAUGCAGAGGCGGCAGCCUUCGGUGGCGCGAUAGCGCAAACGUUCUCAACUAUGACACGCAAAUCGCGUGCUCCGUUGAAUGGAGUUUAUCAUG [C96A A122U], the “polymerase ribozyme fitness (log ratio)” value is -0.0649.

Consider GGAUCUUCUCGAUCUAACAAAAAAGACAAAUCUGCCACAAAGCUUGAGAGCAUCUUCGGAUGCAGAGGCGGCAGCCUUCGGUGGCGCGAUAGCGCGAUCAUUCUCAAGUAUGACACGCAAAACGCGUGCUCCCUUGAAUGGAGUUUAUCAUG [C96G A98U G100A C108G G133C], for which the “polymerase ribozyme fitness (log ratio)” value is at most -4.2.

Take GGAUCUUCUCGAUCUAACAAAAAAGACAAAUCUGCCACAAAGCUUGAGAGCAUCUUCGGAUGCAGAGGCGGCAGCCUUCGGUGGCGCGAUAGCGCAAACGUUCUCAACUAUGACACGCAAAACGCGUGCUCCGUAGAAUGGAGUUUAUCAUG [C96A U135A]: the “polymerase ribozyme fitness (log ratio)” value is -1.48.

Consider GGAUCUUCUCGAUCUAACAAAAAAGACAAAUCUGCCACAAAGCUUGAGAGCAUCUUCGGAUGCAGAGGCGGCAGCCUUCGGUGGCGCGAUAGCGCAAACGUUCUCAACUAUGACACGCAAAACGCGCGCUCCGUUGAAUGGAGUUUAUCAUG [C96A U127C], for which the “polymerase ribozyme fitness (log ratio)” value was -1.71.

Turning to GGAUCUUCUCGAUCUAACAAAAAAGACAAAUCUGCCACAAAGCUUGAGAGCAUCUUCGGAUGCAGAGGCGGCAGCCUUCGGUGGCGCGAUAGCGCAAACGUUCUCAACUAUGACACGCAAAACUCGUGCUCCGUUGAAUGGAGUUUAUGAUG [C96A G124U C149G], the “polymerase ribozyme fitness (log ratio)” value is -3.82.

Regarding GGAUCUUCUCGAUCUAACAAAAAAGACAAAUCUGCCACAAAGCUUGAGAGCAUCUUCGGAUGCAGAGGCGGCAGCCUUCGGUGGCGCGAUAGCGCGAACGUUCUCAACUAUGACACGCAAAACACGUGCUCCGUUGAAUGGAGUUUAUCAUG [C96G G124A], the “polymerase ribozyme fitness (log ratio)” value is -0.441.

These data come from the RNAGym collection of RNA variant scans (doi:10.1073/pnas.2313332121).
